We go through 4 molecules from publication PMC1301591 (Nucleic Acids Research, 2005).

Test [1] has as its target T1, Recombinant His-tagged WRN protein (human, UniProt Q14191 1-1432). Put plainly: pull-down.
In test [2] the target is Recombinant His-tagged BLM protein (human, UniProt P54132 1-1417). Put plainly: pull-down.
Test [3] concerns the target T1, Recombinant His-tagged WRN protein. Put plainly: ELISA. (In an ELISA, binding on a coated surface is turned into a signal by an enzyme label.)

T1 sequence (Q14191 whole entry): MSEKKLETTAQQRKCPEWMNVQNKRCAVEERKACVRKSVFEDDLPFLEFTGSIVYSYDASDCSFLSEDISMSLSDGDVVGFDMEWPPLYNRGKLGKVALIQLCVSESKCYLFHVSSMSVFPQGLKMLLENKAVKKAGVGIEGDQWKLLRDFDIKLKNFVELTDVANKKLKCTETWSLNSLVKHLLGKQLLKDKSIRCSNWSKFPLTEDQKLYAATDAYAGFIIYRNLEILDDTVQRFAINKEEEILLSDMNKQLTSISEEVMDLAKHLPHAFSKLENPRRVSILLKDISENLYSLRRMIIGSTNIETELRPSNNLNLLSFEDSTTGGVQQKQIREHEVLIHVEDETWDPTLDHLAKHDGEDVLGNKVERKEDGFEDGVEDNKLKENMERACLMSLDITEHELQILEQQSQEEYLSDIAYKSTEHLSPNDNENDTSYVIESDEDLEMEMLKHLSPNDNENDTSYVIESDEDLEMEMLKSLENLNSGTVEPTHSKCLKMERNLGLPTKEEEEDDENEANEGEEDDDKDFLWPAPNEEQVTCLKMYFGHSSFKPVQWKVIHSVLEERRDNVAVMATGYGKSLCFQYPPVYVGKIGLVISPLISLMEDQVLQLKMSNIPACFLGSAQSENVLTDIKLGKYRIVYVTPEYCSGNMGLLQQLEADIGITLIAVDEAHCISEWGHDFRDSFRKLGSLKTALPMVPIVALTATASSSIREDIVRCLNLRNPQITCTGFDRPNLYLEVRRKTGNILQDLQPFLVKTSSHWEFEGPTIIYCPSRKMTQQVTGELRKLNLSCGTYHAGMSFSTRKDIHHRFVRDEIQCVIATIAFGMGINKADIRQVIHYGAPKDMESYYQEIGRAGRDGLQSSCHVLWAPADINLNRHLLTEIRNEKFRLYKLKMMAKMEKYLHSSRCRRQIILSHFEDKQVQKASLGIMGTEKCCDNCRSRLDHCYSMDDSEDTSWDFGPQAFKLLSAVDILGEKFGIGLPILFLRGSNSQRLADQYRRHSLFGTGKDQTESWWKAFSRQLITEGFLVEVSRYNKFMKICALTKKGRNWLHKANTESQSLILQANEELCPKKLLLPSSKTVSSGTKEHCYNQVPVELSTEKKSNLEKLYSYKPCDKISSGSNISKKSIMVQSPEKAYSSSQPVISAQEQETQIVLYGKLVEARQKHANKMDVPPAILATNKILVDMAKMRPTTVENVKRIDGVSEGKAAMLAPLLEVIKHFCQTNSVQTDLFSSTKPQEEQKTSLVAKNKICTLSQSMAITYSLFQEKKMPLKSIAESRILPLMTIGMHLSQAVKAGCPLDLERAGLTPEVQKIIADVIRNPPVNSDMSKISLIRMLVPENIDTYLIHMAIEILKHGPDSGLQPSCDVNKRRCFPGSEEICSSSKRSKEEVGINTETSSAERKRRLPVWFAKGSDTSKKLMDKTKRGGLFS
Chain of Recombinant His-tagged BLM protein (P54132 whole entry): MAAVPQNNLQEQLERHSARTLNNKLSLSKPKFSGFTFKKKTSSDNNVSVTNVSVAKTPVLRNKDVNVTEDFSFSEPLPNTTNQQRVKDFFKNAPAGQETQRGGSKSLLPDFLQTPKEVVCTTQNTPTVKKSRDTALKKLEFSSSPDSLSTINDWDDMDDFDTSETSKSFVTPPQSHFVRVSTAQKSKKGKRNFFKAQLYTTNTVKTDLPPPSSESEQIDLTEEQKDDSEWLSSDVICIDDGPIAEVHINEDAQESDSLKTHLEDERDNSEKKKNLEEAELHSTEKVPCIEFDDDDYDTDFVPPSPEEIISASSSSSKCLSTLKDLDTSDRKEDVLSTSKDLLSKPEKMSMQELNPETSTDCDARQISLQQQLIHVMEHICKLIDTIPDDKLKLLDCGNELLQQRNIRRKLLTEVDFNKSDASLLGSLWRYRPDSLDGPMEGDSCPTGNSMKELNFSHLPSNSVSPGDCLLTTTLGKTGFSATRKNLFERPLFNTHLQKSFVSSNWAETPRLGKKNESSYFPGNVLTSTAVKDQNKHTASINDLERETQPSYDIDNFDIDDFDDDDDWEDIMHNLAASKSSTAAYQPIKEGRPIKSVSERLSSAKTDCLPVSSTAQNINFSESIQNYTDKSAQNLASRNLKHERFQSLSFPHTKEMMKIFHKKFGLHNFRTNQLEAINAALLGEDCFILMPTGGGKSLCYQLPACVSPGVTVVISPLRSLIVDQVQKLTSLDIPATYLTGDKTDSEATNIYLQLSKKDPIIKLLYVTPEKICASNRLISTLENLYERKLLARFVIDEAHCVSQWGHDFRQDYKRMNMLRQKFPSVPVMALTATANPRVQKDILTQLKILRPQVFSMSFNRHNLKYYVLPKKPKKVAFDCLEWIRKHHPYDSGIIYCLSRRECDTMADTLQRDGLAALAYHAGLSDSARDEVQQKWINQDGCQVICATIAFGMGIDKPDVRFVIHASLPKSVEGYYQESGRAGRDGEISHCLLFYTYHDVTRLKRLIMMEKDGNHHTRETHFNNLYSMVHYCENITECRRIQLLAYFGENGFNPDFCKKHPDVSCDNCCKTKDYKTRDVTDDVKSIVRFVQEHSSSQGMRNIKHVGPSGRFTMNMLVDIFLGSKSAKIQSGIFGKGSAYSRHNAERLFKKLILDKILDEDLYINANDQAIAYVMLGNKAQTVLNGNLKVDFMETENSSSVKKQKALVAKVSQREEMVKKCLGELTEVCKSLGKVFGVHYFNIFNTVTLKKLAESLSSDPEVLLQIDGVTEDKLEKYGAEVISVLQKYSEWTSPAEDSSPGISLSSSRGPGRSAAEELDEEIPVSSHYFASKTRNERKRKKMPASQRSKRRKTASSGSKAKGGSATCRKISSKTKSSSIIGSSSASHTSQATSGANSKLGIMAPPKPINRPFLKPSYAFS

B1: GST–FEN-1 fusion protein containing human FEN-1 amino acids 328–380 (domain or fragment, UniProt P39748 328-380, looked up)
chain: LSKSRQGSTQGRLDDFFKVTGSLSSAKRKEPEPKGSTKKKAKTGAAGKFKRGK
With B1, the binding result in test [1] and in test [2] was “binds” in each case.

B2: GST–FEN-1 fusion protein containing human FEN-1 amino acids 254–380 (domain or fragment, UniProt P39748 254-380, looked up)
chain: KSIEEIVRRLDPNKYPVPENWLHKEAHQLFLEPEVLDPESVELKWSEPNEEELIKFMCGEKQFSEERIRSGVKRLSKSRQGSTQGRLDDFFKVTGSLSSAKRKEPEPKGSTKKKAKTGAAGKFKRGK
On to B2, for which the binding result in test [1] and in test [2] was “binds” throughout.

B3: FEN-1ΔP (residues 337–344 are deleted) (enzyme, human, UniProt P39748 1-380, looked up)
chain: MGIQGLAKLIADVAPSAIRENDIKSYFGRKVAIDASMSIYQFLIAVRQGGDVLQNEEGETTSHLMGMFYRTIRMMENGIKPVYVFDGKPPQLKSGELAKRSERRAEAEKQLQQAQAAGAEQEVEKFTKRLVKVTKQHNDECKHLLSLMGIPYLDAPSEAEASCAALVKAGKVYAAATEDMDCLTFGSPVLMRHLTASEAKKLPIQEFHLSRILQELGLNQEQFVDLCILLGSDYCESIRGIGPKRAVDLIQKHKSIEEIVRRLDPNKYPVPENWLHKEAHQLFLEPEVLDPESVELKWSEPNEEELIKFMCGEKQFSEERIRSGVKRLSKSRQGSTKVTGSLSSAKRKEPEPKGSTKKKAKTGAAGKFKRGK
On to B3, for which the binding result in test [3] was “binds”.
Take STKKKAKTGAAGKFKRGK (domain or fragment, UniProt P39748 363-380, looked up) [GST–FEN-1 fusion protein containing human FEN-1 amino acids 363–380]: the binding result in test [1] and in test [2] was “binds” throughout.
